Experiment: soluble on expression in E. coli; label from the status in PepcDB or PDB records

Row | Sequence | soluble on expression in E. coli
1 | MATESGSDSQLRRRRRRDPEGSEKTELSEREPALAVAGSEENDDENEERWVGPLPVEATLAKKRKVLEFERVYLDNLPSASMYERSYMHRDVITHVVCTKTDFIITASHDGHVKFWKKIEEGIEFVKHFRSHLGVIESIAVSSEGALFCSVGDDKAMKVFDVVNFDMINMLKLGYFPGQCEWIYCPGDAISSVAASEKSTGKIFIYDGRGDNQPLHIFDKLHVSPLTQIRLNPVYKAVVSSDKSGMIEYWTGPPHEYKFPKNVNWEYKTDTDLYEFAKCKAYPTSICFSPDGKKIATIGSDRKVRIFRFLTGKLMRVFDESLSMFTELQQMRQQLPDMEFGRRMAVERELEKVDAVRLVNIVFDETGHFVLYGTMLGIKVINVEPNRCVRILGKQENIRVMQLALFQGIAKKHRAAATIEMKASENPVLQNIQADPTIVCTSFKKNRFYMFTKRETEDTKTADSDRDVFNEKPSKEEVMAATQAEGPKRVSDSAIVHTSMGDIHIKLFPVECPKTVENFCVHSRNGYYNGHTFHRIIKGFMIQTGDPTGTGMGGESIWGGEFEDEFHSTLRHDRPYTLSMANAGSNTNGSQFFITVVPTPWLDNKHTVFGRVSKGMEVVQRIFNVKVNPQTDKPYEDVSIINITVK | soluble
2 | MGHHHHHHGGHMSLDYQKEYERKLISPEEAANLVKDGMHIEIGGSANTALIIDKYLAKRKDELSHVEVGTFIDIAHYEFLKADPEQEKIKWESCFLYEPVRKCSKELGPCVHRPGVLSDAGYIAKELGGVLKGGKKYTDIAFLVTTPMDRHGFFNFGVTCTFLKSIAEGAEKVVVVVKKDMPWVNGGYDECIHISEVDYIVEDNEFPTPFLPFLPPPSKEDEMIAENIMEAGLIENGSTLQVGIGGLPNTVVRMLKEAGLKDLGIHTEMMGDGLMELMEEGIVTNQNKKLDRGKAVFSFALGTRKLYDFLDRNPEVATYPVEYTNNPFVVAQQPKMFSLNQVAQIDLMGQINSGQIGLTSPSGKIFQISGTGGQLDFVLGCFYSFDRQGKSVLATYSTYNGTSRIIPALPTGAGVTVPRSVVQYVATEWGIAYLRGLPIYKRAAAMIQLAHPDHRDWLEEEARKLGILPPKYSIPAGKADGVIYRRDEGGS | soluble
3 | MGSDKIHHHHHHMGLRILQVMAGAEQGGAELFFERLCIALHRAGLHQHVVMREASVRLARMREAGLRPVLLPFGGRFDFKTGRALRQEIARFQPAVVLSWMNRATRFVRPGNHVFCARLGGYYDLKYYRGCDWLVCNTEDIRDYVIKQGFPAERAVHLPNFVPQQHMAPTARKLLYTPENAPLVLALGRLHENKAFDVLLRALALVPDVYLWLAGEGPLRASLETLAQDLGVKPRVRFLGWRDDTPALYAAADLVVFPSRHEPLGNVVLEAWAQRTPMVSTRTDGPARLITSGHNGLLVPIDDHRAMAGAIRQAFGEPGLGEAMARAGWDSYLAAYTEEKVVASYRSFFETIVAERSGAVDRG | not soluble
4 | MGSDKIHHHHHHMKDLSSIVAKFNTQGTITEIKPLGAGLINDTYKVNTQEADAPDYVLQRINHAIFQNVEMLQSNIAAVTGHIRKKLTEAGEADIDRKVLSFLATEEGKTYWFDGESYWRVMVFIPRAKTYETVNPEYSNYAGEAFGNFQAMLADIPETLGETIPDFHNMEFRLKQLRDAVAANAAGRVAEVQYYLDEIEKRADEMCKAERLFREGKLPKRVCHCDTKVNNMMFDEDGKVLCVIDLDTVMPSFIFSDYGDFLRTGANTGDEDDKDLNRVNFNMEIFKAFTKGYLKGAKSFLTPIEIENLPYAAALFPYMQCVRFLADYINGDTYYKIKYPEHNLVRTKAQFKLLQSVEEHTPEMVAFINECLVNG | not soluble
5 | EGSARFMPELTARAGFAFIPSIAIIKNKVFEPDDPQELEAYQSVLGYTPGIRGNLKVSSFSGHMLADYHPFKNAFRVTAGLYFNRPQINAKVQLINQNTGQSIMNDQSTLNPNNMPVITIKDKDNPADKVSIQPSSTAEVEASVHLGRTVQPYIGIGYGFAVPVSRVSFFADLGMLFSGKAQISSPNVIAGDPNLLIDFSEDAQEAVYSTQILPVLNIGVSIRLF | not soluble
6 | MPPRRYNPDTRRDELLERINLDIPGAVAQALREDLGGTVDANNDITAKLLPENSRSHATVITRENGVFCGKRWVEEVFIQLAGDDVTIIWHVDDGDVINANQSLFELEGPSRVLLTGERTALNFVQTLSGVASKVRHYVELLEGTNTQLLDTRKTLPGLRSALKYAVLCGGGANHRLGLSDAFLIKENHIIASGSVRQAVEKASWLHPDAPVEVEVENLEELDEALKAGADIIMLDNFETEQMREAVKRTNGKALLEVSGNVTDKTLREFAETGVDFISVGALTKHVQALDLSMRFR | soluble
7 | MYFRLESQFSINGSMIVLINGAEPSLESHVAFYETGTFTVEQGEMRMIELKYQSTMENIHAFLDVVTGAIDIHLSPCKSQETDIFYSNLAAGSHRIDIDLKTMMDNVSVLLKKNVSKLHKAKR | not soluble
8 | MKRNAWEVYGEVLKTARELGLEGEEQEVAKALLAWPKERFHALAARVGLKAKYLRHDLLPIAFLPEPLREALQGGLPLREAHRLHRLLKRGELSLQDLTGKDPKALMALPARPGEVDPRLPVWFFPPEPWEEALPMAVARALVQLYTREGELVLDPMAGRGTVVEAARALDRRAWGGDIAPRGPLVERADIRDLPRRFRKEAALVVLHPPTFSTWLREEGYREEAEERYGEYIRHISSFLDLCRPTLAPGGKLVLVARPRRTLTPKDLEAGHDFFLAPWERALAEADFRPLSYHLAVSQDGRQDWHLFVGEPRG | soluble
9 | MGHHHHHHSHQVLTTSRKPGRKTRRFAKVLARFFNWKYVNRGKLSLEDLAGIAERFWIISEVKGNPAILNLYERGEKTLEVSFTLSNVNKIKMDDSPAVFKGKAPIDPLVFGAIPQTKAGLKLTRKVEFRKKVVVKGDEWLFFYDDEMLFKLRILKISRSS | soluble
10 | MADEIFKAFIGGLPYDSIATDIETILKHCKFTDEELKKFDIHLVHDRDSGSFKGFAYVTFENEQQMNTAISGLNGADFGNRVLKVNRAQQRDRSDRGGGRGGRGGNFGDRGGRGRGAGGFRRGGEGGRFNEGERRGGFGGGGHRGGYRQRRESEEQHKAEETSDPSAPPAERPRLNLKPRTTDAAEIEARKKQEEEETKRRQEKLFQ | not soluble
11 | MCSGYFELKQMFPIIRKIFVEKSNCSSNTHHSKRSIGETAGLKTGERIVGVNGQLIYPTNTHKEVVPLMKQNAMKTTLLEVH | not soluble
